Substitutions are numbered along the chain they refer to.
Tests used:
HEK 293T cells = test: hDHFR regulated CD40L surface expression, HEK 293T cells (flow cytometry); assay type: cell-based, human; settings: 50 μM TMP 24 hours
Protocol: HEK 293T cells were transiently […] with hDHFR regulated constructs namely OT-001962, OT-001961, OT-001963 for 24 hours. Following transfection, cells were treated with 50 μM TMP for 24 hours and CD40L cell surface expression was measured using flow cytometry. […] CD40L expression in the absence of ligand was virtually undetectable.

Jurkat cells [1] = test: DHFR regulated CD40L expression, transduced Jurkat cells (flow cytometry); assay type: cell-based; settings: for SR: TMP (50 μM) versus Vehicle
Protocol: Jurkat cells were transduced with lentiviruses corresponding to OT-001662, OT-001962, OT-001961, OT-001963. 24 hours after transduction, cells were split and treated with DMSO or 50 μM TMP for another 24 hours until flow cytometry-based analysis. The results are shown in Table 37 where SR indicates stabilization ration.

Jurkat cells [2] = test: CD40L shedding ELISA of supernatant, Jurkat cells with or without CD40-Fc receptor; assay type: cell-based; parameters: CD40L levels in supernatant: unit not given here; settings: 6 hours
Protocol: Sheddases e.g. ADAM10/17 present in the tumor microenvironment can cleave CD40L thereby preventing the successful activation of CD40 by CD40L. […] OT-001669 which has a deletion of amino acids 1-13 of CD40L was designed to reduce internalization and OT-001668 which has a deletion of amino acids 110-116 of CD40L was designed to remove the ADAM10/17 sites. Jurkat cells stably expressing the full length construct OT-001661, OT-001669, or OT-001668 were cultured for 6 hours with 1.25 μg/ml recombinant human (h) or mouse (m) CD40-Fc receptor or left untreated and tested using an ELISA assay (Table 15).

T cells (CD4 and CD8) = test: Cleavage resistant CD40L expression and TMP regulation in T cells; assay type: cell-based; settings: for CD40L expression (percentage of CD40L expressing T cells): day 4
Protocol: T cells were transduced with OT-001668 and on day 4, the percentage of CD40L expressing T cells (within the both CD4 and CD8) subpopulations was calculated.
T cells were transduced with ecDHFR regulated construct OT-001671 that include a CD40L protein that was resistant to cleavage. On day 4 cells were treated with 10 μM TMP for 24 hours. […] In an independent experiment, T cells transduced with varying volumes of virus corresponding to OT-001671 were treated with increasing doses of TMP for 24 hours. In Table 41, 0.5 μL, 2 μL, and 10 μL indicate the different volumes of virus that were used.

HEK293T cells [3] = test: Soluble CD40L ELISA, transiently transfected HEK293T cells; assay type: cell-based, human
Protocol: Soluble CD40L (sCD40L) constructs OT-001672, OT-001686, OT-001673, OT-001674, OT-001677, and OT-001684 were transiently transfected into HEK293T cells. Cells were treated with one of the following ligands 1 μM Shield-1, 50 μM TMP, 1 μM Bazedoxifene (BZD) or vehicle control.
The pg/mL levels of soluble CD40L were measured by ELISA (Table 14). Recombinant soluble CD40L was used as the standard in the experiments.

HEK293T cells [4] = test: Surface expression of CD40L trimerization mutants, transfected HEK293T cells (FACS); assay type: cell-based, human; settings: transiently transfected HEK293T cells
Protocol: Mutations were engineered within CD40L payload to reduce the binding affinity of CD40L payload for the CD40L endogenously expressed by cells. Constructs OT-002078, OT-002079, OT-002080, OT-002081, OT-002082 were generated with the CD40L trimerization mutants. HEK293T cells were transiently transfected with the constructs and CD40L expression was measured by FACS.

[5] = independent experiment with similar setup

B1: OT-001961: hDHFR regulated CD40L construct (protein)
chain: MVGSLNCIVAVSQNMGIGKNGDLPWPPLRNEFRYFQRMTTTSSVEGKQNLVIMGKKTWFSIPEKNRPLKGRINLVLSRELKEPPQGAHFLSRSLDDALKLTEQPELANKVDMVWIVGGSSVIKEAMNHPGHLKLFVTRIMQDFESDTFFPEIDLEKYKLLPEYPGVLSDVQEEKGIKYKFEVYEKNDHMIETYNQTSPRSAATGLPISMKIFMYLLTVFLITQMIGSALFAVYLHRRLDKIEDERNLHEDFVFMKTIQRCNTGERSLSLLNCEEIKSQFEGFVKDIMLNKEETKKENSFEMQKGDQNPQIAAHVISEASSKTTSVLQWAEKGYYTMSNNLVTLENGKQLTVKRQGLYYIYAQVTFCSNREASSQAPFIASLCLKSPGRFERILLRAANTHSSAKPCGQQSIHLGGVFELQPGASVFVNVTDPSQVSHGTGFTSFGLLKL
% CD40L (HEK 293T cells): 14.6%
% CD40L expression (Jurkat cells [1]; TMP (50 μM)): 3.5%
SR (Jurkat cells [1]): 1.8
% CD40L expression (Jurkat cells [1]; Vehicle (DMSO)): 2%

B2: OT-001963: hDHFR regulated CD40L construct (protein)
chain: B1 chain with K55R, N65K
% CD40L (HEK 293T cells): 13.3%
% CD40L expression (Jurkat cells [1]; TMP (50 μM)): 20%
SR (Jurkat cells [1]): 10
% CD40L expression (Jurkat cells [1]; Vehicle (DMSO)): 2%

B3: OT-001668: cleavage resistant CD40L construct, deletion of amino acids 110-116 of CD40L to remove the ADAM10/17 sites (protein)
chain: MHMIETYNQTSPRSAATGLPISMKIFMYLLTVFLITQMIGSALFAVYLHRRLDKIEDERNLHEDFVFMKTIQRCNTGERSLSLLNCEEIKSQFEGFVKDIMLNKEETKKENDQNPQIAAHVISEASSKTTSVLQWAEKGYYTMSNNLVTLENGKQLTVKRQGLYYIYAQVTFCSNREASSQAPFIASLCLKSPGRFERILLRAANTHSSAKPCGQQSIHLGGVFELQPGASVFVNVTDPSQVSHGTGFTSFGLLKL
CD40L levels in supernatant (Jurkat cells [2]; 1.25 μg/ml hCD40-Fc): 10
CD40L levels in supernatant (Jurkat cells [2]; 1.25 μg/ml mCD40-Fc): 10
shedding of CD40L (Jurkat cells [2]; untreated or with human or mouse CD40-Fc): no shedding
CD40L levels in supernatant (Jurkat cells [2]; Untreated): 10
CD40L expression (percentage of CD40L expressing T cells) (T cells (CD4 and CD8); CD4+): 95.5%
CD40L expression (percentage of CD40L expressing T cells) (T cells (CD4 and CD8); CD8+): 86.7%
expression of CD40L (T cells (CD4 and CD8); T cells, day 4, CD4 and CD8 subpopulations): High expression of CD40L

B4: OT-001677: Soluble CD40L (sCD40L) construct (protein)
chain: GSSLALSLTADQMVSALLDAEPPILYSEYDPTRPFSEASMMGLLTNLADRELVHMINWAKRVPGFVDLTLHDQVHLLECAWMEILMIGLVWRSMEHPGKLLFAPNLLLDRDQGKCVEGGVEIFDMLLATSSRFRMMNLQGEEFVCLKSIILLNSGVYTFLSSTLKSLEEKDHIHRVLDKITDTLIHLMAKAGLTLQQQHQRLAQLLLILSHIRHMSNKRMEHLYSMKCKNVVPLSDLLLEMLDAHRLGSMHMQKGDQNPQIAAHVISEASSKTTSVLQWAEKGYYTMSNNLVTLENGKQLTVKRQGLYYIYAQVTFCSNREASSQAPFIASLCLKSPGRFERILLRAANTHSSAKPCGQQSIHLGGVFELQPGASVFVNVTDPSQVSHGTGFTSFGLLKL
Stabilization Ratio (HEK293T cells [3]; [5]): 7.2
basal expression in the absence of ligand (HEK293T cells [3]; [5]): very low basal expression

B5: OT-001684: Soluble CD40L (sCD40L) construct (protein)
chain: B4 chain with T69A, D111N, N217S
Stabilization Ratio (HEK293T cells [3]; soluble CD40L +Ligand versus Vehicle, HEK293T cells): 1.0

B6: OT-002078: construct with CD40L trimerization mutant (protein)
chain: MGGSGGGSGGGSGMIETYNQTSPRSAATGLPISMKIFMYLLTVFLITQMIGSALFAVYLHRRLDKIEDERNLHEDFVFMKTIQRCNTGERSLSLLNCEEIKSQFEGFVKDIMLNKEETKKENSFEMQKGDQNPQIAAHVISEASSKTTSVLQWAEKGYYTMSNNLVTLENGKQLTVKRQGLYYIYAQVTFCSNREASSQAPFIASLCLKSPGRFERILLRAANTHSSAKPCGQQSIGLFGVFELQPGASVFVNVTDPSQVSHGTGFTSFGLLKL
% CD40L positive (HEK293T cells [4]): 49.7%

B7: OT-002079: construct with CD40L trimerization mutant (protein)
chain: B6 chain with F239H
% CD40L positive (HEK293T cells [4]): 64.7%

B8: OT-002082: construct with CD40L trimerization mutant (protein)
chain: B6 chain with H138G, G237H, F239G, G240F
% CD40L positive (HEK293T cells [4]): 0.028%

B9: OT-002080: construct with CD40L trimerization mutant (protein)
chain: B6 chain with Y185G, G237H
% CD40L positive (HEK293T cells [4]): 0.11%

— US20220175781A1, “CD40L COMPOSITIONS AND METHODS FOR TUNABLE REGULATION” (Obsidian Therapeutics, Inc., priority 2019, published 2022)
